Patent US20060073572A1, “Cytokine structurally related to IL-17” (The Johns Hopkins University, priority 2001, published 2006)
“Also recorded” adds a separate entry of the source.

What was measured:
IL-8 = IL-8 expression in PBECs (ELISA, RT-PCR); type: cell-based, human; details: ML-1 10 and 100 ng/ml, 24 and 48 hours, ELISA
Method: FIG. 5. Analysis of IL-6 (FIG. 5A) and IL-8 (FIG. 5B) expression in primary bronchial epithelial cells (PBECs) and human umbilical vein endothelial cells (HUVECs) stimulated by ML-1. The IL-6 and IL-8 protein release in the supernatant was determined by ELISA as described in Example 8. The results were expressed as mean+SD (n=6). *p<0.05 was considered significant vs control.
FIG. 7A-7D. Effect of PD98059 on IL-6 (FIG. 7A) and IL-8 (FIG. 7B) protein production in PBECs and HUVECs. The cells were preincubated with varying concentrations of PD98059, SB202190, or DMSO vehicle control for 1 hour, followed by stimulation with ML-1 (100 ng/ml) for 24 hours. The results are expressed as the mean+SD (n=6). *P<0.05 when compared to cultures without the addition of PD98059. FIGS. 7C and 7D. Semi-quantitative analysis of gene expression for IL-6 (FIG. 7C) and IL-8 (FIG. 7D) by RT-PCR. The cells were preincubated as described above and treated with ML-1 for 4 hours. RT-PCR was performed as described in Example 8. The results shown are representative of three separate experiments.
Primary bronchial epithelial cells (PBECs) were purchased from Clonetics (San Diego, Calif.) and cultured in bronchial epithelial basal medium (Clonetics) containing 0.5 ng/ml human recombinant epidermal growth factor (EGF), 52 mg/ml bovine pituitary extract, 0.1 mg/ml retinoic acid, 0.5 mg/ml hydrocortisone, 5 mg/ml insulin, 10 mg/ml transferrin, 0.5 mg/ml epinephrine, 6.5 ng/ml triiodothyronine, […] gentamicin, and 50 pg/ml amphotericin-B (Clonetics). […]
The amplification reaction was performed for 23 cycles with denaturation at 94° C. for 45 seconds, annealing at 56° C. for 45 seconds, and extension at 72° C. for 45 seconds. PCR products were detected by ethidium bromide staining and normalized by the intensity of an amplified housekeeping gene, G3PDH (see above). […] IL-6 and IL-8 protein levels in the collected supernatants were determined with a commercially available ELISA kit (Biosource, Camarillo, Calif.) according to the manufacturer's instructions.

JNK = experiment: Western blotting of JNK activation in ML-1-stimulated cells; type: cell-based, human; details: any time point, FIG. 6A (PBECs)
Method: FIGS. 6A-6D. Kinetic activation of ERK1/2 by ML-1 in PBECs (FIG. 6A) and HUVECs (FIG. 6B). The cells were incubated with or without ML-1 (100 ng/ml) for different time points as indicated. Western blotting analysis was performed by using antibodies against different MAP kinases as described in Example 8. FIGS. 6C and 6D. Effect of PD98059 on ML-1-induced phosphorylation of ERK1/2 in PBECs (FIG. 6C) and HUVECs (FIG. 6D). The cells were preincubated with PD98059 ([…]) or DMSO vehicle control for 1 hour, followed by stimulation of PBECs and HUVECs with medium or ML-1 for 20 minutes or 10 minutes, respectively. The results shown are representative of three separate experiments.
For analysis of activation of MAP kinases, PBECs were treated with IL-17 (100 ng/ml) for various time periods, with or without the MEK 1/2 inhibitor PD98059 ([…]; Calbiochem, La Jolla, Calif.) (15), the p38 inhibitor SB202190 (0.5-10 μM; ref. 16), or a vehicle control, DMSO (Me2SO) for 1 hour. […] Following the treatment, the cells were washed with ice-cold PBS. […]
Immunoreactive proteins were detected using antibodies against various kinases and phosphorylated kinases. […] Western blotting detection reagents (Amersham) and Hyper ECL luminescence detection film (Amersham) were used. […]

B1: ML-1: new member of the IL-17 cytokine family, SEQ ID NO:2; His-tagged recombinant protein expressed in COS-7 cells and affinity purified (protein, listed as Homo sapiens)
chain: MKLDIGIINENQRVSMSRNIESRSTSPWNYTVTWDPNRYPSEVVQAQCRNLGCINAQGKEDISMNSVPIQQETLVVRRKHQGCSVSFQLEKVLVTVGCTCVTPVIHHVQ
modifications: His tag
- IL-8 production (IL-8): time-dependent increase; also recorded: significantly induced
- activation of JNK kinase (JNK): No activation
